From patent publication US20060241051A1 (Takeda / Millennium, published 2006)
Square brackets hold non-standard residues; d marks the D form. Primed or numbered codes have the meaning given here. Ends that are not written are not given here. * marks the point of attachment. 2‑(indol-3-yl)ethylcarbamoyl = O=C(NCCc1c[nH]c2ccccc12)*; Propanoyl(3-indol-3-yl) = O=C(CCc1c[nH]c2ccccc12)*; 2Nal = N[C@@H](Cc1ccc2ccccc2c1)C(=O)O; Cyclohexanecarbonyl = O=C(C1CCCCC1)*; Arg(Me) = CNC(=N)NCCC[C@H](N)C(=O)O; Diphenylacetyl′ = not defined here; d3Pal = N[C@H](Cc1cccnc1)C(=O)O; Cha = N[C@@H](CC1CCCCC1)C(=O)O; amidino = N=C(N)*; azaGly = NNC(=O)O

B1: Compound No. 270: [D-Tyr1,Phe3,Ser-Phe5,AzaGly7,Arg(Me)9]MS10 (peptide)
peptide: [dY]NFNSFF[azaGly]L[Arg(Me)]F-NH2
notes: 11 residues; also called Endo-Phe5a-[D-Tyr1,Phe3,AzaGly7,Arg(Me)9]MS10
B2: Compound No. 242: des(1)-[D-Tyr2,D-Trp3,AzaGly7,Arg(Me)9]MS10 (peptide)
peptide: [dY][dW]NSF[azaGly]L[Arg(Me)]F-NH2
B3: Compound No. 279: des(1-3)-2-(Indol-3-yl)ethylcarbamoyl-[AzaGly7,Arg(Me)9]MS10 (peptide)
peptide: {2‑(indol-3-yl)ethylcarbamoyl}-NSF[azaGly]L[Arg(Me)]F-NH2
SMILES: CNC(=N)NCCC[C@H](NC(=O)[C@H](CC(C)C)NC(=O)NNC(=O)[C@H](Cc1ccccc1)NC(=O)[C@H](CO)NC(=O)[C@H](CC(N)=O)NC(=O)NCCc1c[nH]c2ccccc12)C(=O)N[C@@H](Cc1ccccc1)C(N)=O
B4: Compound No. 204: [D-Tyr1, Ala7, Arg(Me)9]MS10 (peptide)
peptide: [dY]NWNSFAL[Arg(Me)]F-NH2
modifications: N-terminus assumed
SMILES: CNC(=N)NCCC[C@H](NC(=O)[C@H](CC(C)C)NC(=O)[C@H](C)NC(=O)[C@H](Cc1ccccc1)NC(=O)[C@H](CO)NC(=O)[C@H](CC(N)=O)NC(=O)[C@H](Cc1c[nH]c2ccccc12)NC(=O)[C@H](CC(N)=O)NC(=O)[C@H](N)Cc1ccc(O)cc1)C(=O)N[C@@H](Cc1ccccc1)C(N)=O
notes: printed structure is the same as that of Compound No. 173
B5: Compound No. 266: des(1-3)-Indole-3-acetyl-[AzaGly7,Arg(Me)9]MS10 (peptide)
peptide: {Indole‑3‑acetyl}-NSF[azaGly]L[Arg(Me)]F-NH2
B6: Compound No. 254: des(1)-[D-Tyr2,Phe3,AzaGly7,Arg(Me)9]MS10 (peptide)
peptide: [dY]FNSF[azaGly]L[Arg(Me)]F-NH2
B7: Compound No. 265: des(1-3)-Indole-3-carbonyl-[AzaGly7,Arg(Me)9]MS10 (peptide)
peptide: {Indole‑3‑carbonyl}-NSF[azaGly]L[Arg(Me)]F-NH2
notes: also called des(1-3)-Indole-3-carboxyl-[AzaGly7,Arg(Me)9]MS10
B8: Compound No. 255: des(1)-[D-Tyr2,Nal(2) 3,AzaGly7,Arg(Me)9]MS10 (peptide)
peptide: [dY][2Nal]NSF[azaGly]L[Arg(Me)]F-NH2
B9: Compound No. 278: des(1-3)-Cyclohexanecarbonyl-[AzaGly7, Arg(Me)9]MS10 (peptide)
peptide: Cyclohexanecarbonyl-NSF[azaGly]L[Arg(Me)]F-NH2
SMILES: CNC(=N)NCCC[C@H](NC(=O)[C@H](CC(C)C)NC(=O)NNC(=O)[C@H](Cc1ccccc1)NC(=O)[C@H](CO)NC(=O)[C@H](CC(N)=O)NC(=O)C1CCCCC1)C(=O)N[C@@H](Cc1ccccc1)C(N)=O
B10: Compound No. 260: des(1-3)-3-(3-Indolyl)propionyl-[AzaGly7,Arg(Me)9]MS10 (peptide)
peptide: {Propanoyl(3-indol-3-yl)}-NSF[azaGly]L[Arg(Me)]F-NH2
B11: Compound No. 272: des(1-2)-Acetyl-[AzaGly7,Arg(Me)9]MS10 (peptide)
peptide: Ac-WNSF[azaGly]L[Arg(Me)]F-NH2
SMILES: CNC(=N)NCCC[C@H](NC(=O)[C@H](CC(C)C)NC(=O)NNC(=O)[C@H](Cc1ccccc1)NC(=O)[C@H](CO)NC(=O)[C@H](CC(N)=O)NC(=O)[C@H](Cc1c[nH]c2ccccc12)NC(C)=O)C(=O)N[C@@H](Cc1ccccc1)C(N)=O
B12: Compound No. 269: des(1-3)-3-Phenylpropionyl-[AzaGly7,Arg(Me)9]MS10 (peptide)
peptide: {3‑Phenylpropionyl}-NSF[azaGly]L[Arg(Me)]F-NH2
B13: Compound No. 258: [D-Pya(3)1,AzaGly7,Arg(Me)9]MS10 (peptide)
peptide: [d3Pal]NWNSF[azaGly]L[Arg(Me)]F-NH2
modifications: N-terminus assumed
SMILES: CNC(=N)NCCC[C@H](NC(=O)[C@H](CC(C)C)NC(=O)NNC(=O)[C@H](Cc1ccccc1)NC(=O)[C@H](CO)NC(=O)[C@H](CC(N)=O)NC(=O)[C@H](Cc1c[nH]c2ccccc12)NC(=O)[C@H](CC(N)=O)NC(=O)[C@H](N)Cc1cccnc1)C(=O)N[C@@H](Cc1ccccc1)C(N)=O
B14: Compound No. 256: des(1)-[D-Pya(3) 2,Phe3,AzaGly7,Arg(Me)9]MS10 (peptide)
peptide: [d3Pal]FNSF[azaGly]L[Arg(Me)]F-NH2
B15: Compound No. 289: des(1)-[D-Pya(3) 2,AzaGly7,Arg(Me)9]MS10 (peptide)
peptide: [d3Pal]WNSF[azaGly]L[Arg(Me)]F-NH2
modifications: N-terminus assumed
SMILES: CNC(=N)NCCC[C@H](NC(=O)[C@H](CC(C)C)NC(=O)NNC(=O)[C@H](Cc1ccccc1)NC(=O)[C@H](CO)NC(=O)[C@H](CC(N)=O)NC(=O)[C@H](Cc1c[nH]c2ccccc12)NC(=O)[C@H](N)Cc1cccnc1)C(=O)N[C@@H](Cc1ccccc1)C(N)=O
notes: also called [D-Pya(3)2,AzaGly7,Arg(Me)9]MS10-(2-10)
B16: Compound No. 281: [D-Tyr1,Pya(2)6,Arg(Me)9]MS10 (peptide)
peptide: YNWNSXGLRF
modifications: D-Tyr1; Pya(2)6; Arg(Me)9; C-terminal amide
B17: Compound No. 271: des(1-2)-[AzaGly7,Arg(Me)9]MS10 (peptide)
peptide: WNSF[azaGly]L[Arg(Me)]F-NH2
modifications: N-terminus assumed
SMILES: CNC(=N)NCCC[C@H](NC(=O)[C@H](CC(C)C)NC(=O)NNC(=O)[C@H](Cc1ccccc1)NC(=O)[C@H](CO)NC(=O)[C@H](CC(N)=O)NC(=O)[C@@H](N)Cc1c[nH]c2ccccc12)C(=O)N[C@@H](Cc1ccccc1)C(N)=O
B18: Compound No. 267: des(1-3)-4-(3-Indolyl)butyryl-[AzaGly7,Arg(Me)9]MS10 (peptide)
peptide: {4‑(3-Indolyl)butyryl}-NSF[azaGly]L[Arg(Me)]F-NH2
B19: Compound No. 277: des(1-3)-n-Hexanoyl-[AzaGly7,Arg(Me)9]MS10 (peptide)
peptide: {n‑Hexanoyl}-NSF[azaGly]L[Arg(Me)]F-NH2
B20: Compound No. 273: des(1-2)-Amidino-[AzaGly7,Arg(Me)9]MS10 (peptide)
peptide: amidino-WNSF[azaGly]L[Arg(Me)]F-NH2
SMILES: CNC(=N)NCCC[C@H](NC(=O)[C@H](CC(C)C)NC(=O)NNC(=O)[C@H](Cc1ccccc1)NC(=O)[C@H](CO)NC(=O)[C@H](CC(N)=O)NC(=O)[C@H](Cc1c[nH]c2ccccc12)NC(=N)N)C(=O)N[C@@H](Cc1ccccc1)C(N)=O
B21: Compound No. 290: [D-Pya(3)1,D-Asn2,Cha3,AzaGly7,Arg(Me)9]MS10 (peptide)
peptide: [d3Pal][dN][Cha]NSF[azaGly]L[Arg(Me)]F-NH2
modifications: N-terminus assumed
SMILES: CNC(=N)NCCC[C@H](NC(=O)[C@H](CC(C)C)NC(=O)NNC(=O)[C@H](Cc1ccccc1)NC(=O)[C@H](CO)NC(=O)[C@H](CC(N)=O)NC(=O)[C@H](CC1CCCCC1)NC(=O)[C@@H](CC(N)=O)NC(=O)[C@H](N)Cc1cccnc1)C(=O)N[C@@H](Cc1ccccc1)C(N)=O
B22: Compound No. 268: des(1-3)-Diphenylacetyl-[AzaGly7,Arg(Me)9]MS10 (peptide)
peptide: {Diphenylacetyl′}-NSF[azaGly]L[Arg(Me)]F-NH2

These binders were tested against T1, human OT7T175 (metastin receptor) (human, UniProt Q969F8 1-398) (assay: FMAT competition with Cy-5-labeled metastin (40-54), hOT7T175-expressed CHO cells).
T1 construct: expressed on CHO cells (hOT7T175-expressed CHO cells; hOT7T175/CHO); also called hOT7T175; h0T7T175
T1 sequence (Q969F8 whole entry L364H): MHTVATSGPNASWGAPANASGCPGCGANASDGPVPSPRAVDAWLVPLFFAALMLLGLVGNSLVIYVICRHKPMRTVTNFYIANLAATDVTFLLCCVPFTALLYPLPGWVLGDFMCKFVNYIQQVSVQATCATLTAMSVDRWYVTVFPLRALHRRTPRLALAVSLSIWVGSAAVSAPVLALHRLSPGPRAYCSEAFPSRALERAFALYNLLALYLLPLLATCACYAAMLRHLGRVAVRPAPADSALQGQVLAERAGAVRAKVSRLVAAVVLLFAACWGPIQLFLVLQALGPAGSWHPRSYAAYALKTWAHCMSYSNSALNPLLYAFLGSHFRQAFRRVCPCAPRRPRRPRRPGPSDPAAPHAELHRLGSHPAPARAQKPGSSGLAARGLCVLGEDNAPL
Experimental: h0T7T175-Expressed CHO cells were cultured in MEM-α medium (nucleic acid-free) containing 10% dialyzed serum. The medium was removed and the adherent cells were washed with PBS. Then, PBS containing 5 mM EDTA was added and the cells were scraped from a flask with a cell scraper. […] To each well of a 96-Well Black Clear Bottom Plate (Applied Biosystems, Inc.), 10 μL of assay buffer containing 1% dimethylsulfoxide was added to examine total binding, 10 μL of 10 μM non-labeled peptide (having the same amino acid sequence as that of the labeled one) solution diluted with assay buffer to examine non-specific binding, and 10 μL of a test compound diluted with assay buffer to examine the binding inhibition activity of the test compound, respectively. Furthermore, 90 μL each of the cell suspension was dispensed to each well. […] The specific binding is a value obtained by subtracting the non-specific binding from the total binding.
Binder B1 has an IC50 of 15 nM. Binder B2 has an IC50 of 70 nM. For B3, the IC50 was 29 nM. B4 gave an IC50 of 680 nM. Work on B5 yielded an IC50 of 230 nM. For B6, the IC50 was 11 nM. B7 was tested, and the IC50 was 95 nM. For B8, the IC50 was 33 nM. Binder B9 has an IC50 of 110 nM. B10 was tested, and the IC50 was 320 nM. B11 showed an IC50 of 540 nM. B12 showed an IC50 of 470 nM. With B13 the IC50 was 90 nM. For B14, the IC50 was 22 nM. With B15 the IC50 was 8.4 nM. B16 gave an IC50 of 230 nM. With B17 the IC50 was 120 nM. B18 was tested, and the IC50 was 360 nM. With B19 the IC50 was 54 nM. B20 showed an IC50 of 300 nM. With B21 the IC50 was 1.4 nM. In the case of B22, the IC50 is reported as 550 nM.

What follows are binders tested against T1, human OT7T175 (metastin receptor) (assay: cell-based or functional assay).
With B2 the “intracellular Ca ion level-increasing activity (FLIPR)” value was 2 specific activity to metastin (1-54). With B4 the “intracellular Ca ion level-increasing activity (FLIPR)” value was 5 specific activity to metastin (1-54).

Biological target: T1, human OT7T175 (metastin receptor)
Test: cell-based or functional assay
Remark: another data set of the same source
B1 was tested, and the “intracellular Ca ion level-increasing activity (FLIPR)” value was 1 specific activity to metastin (1-54). For B3, the “intracellular Ca ion level-increasing activity (FLIPR)” value was 5 specific activity to metastin (1-54). B5 was tested, and the “intracellular Ca ion level-increasing activity (FLIPR)” value was 2 specific activity to metastin (1-54). In the case of B6, the “intracellular Ca ion level-increasing activity (FLIPR)” value is reported as 1 specific activity to metastin (1-54). In the case of B7, the “intracellular Ca ion level-increasing activity (FLIPR)” value is reported as 3 specific activity to metastin (1-54). B8 was tested, and the “intracellular Ca ion level-increasing activity (FLIPR)” value was 1 specific activity to metastin (1-54). B9 was tested, and the “intracellular Ca ion level-increasing activity (FLIPR)” value was 2 specific activity to metastin (1-54). B10 was tested, and the “intracellular Ca ion level-increasing activity (FLIPR)” value was 5 specific activity to metastin (1-54). In the case of B11, the “intracellular Ca ion level-increasing activity (FLIPR)” value is reported as 2 specific activity to metastin (1-54). For B12, the “intracellular Ca ion level-increasing activity (FLIPR)” value was 3 specific activity to metastin (1-54). In the case of B13, the “intracellular Ca ion level-increasing activity (FLIPR)” value is reported as 2 specific activity to metastin (1-54). With B14 the “intracellular Ca ion level-increasing activity (FLIPR)” value was 1 specific activity to metastin (1-54). For B15, the “intracellular Ca ion level-increasing activity (FLIPR)” value was 1 specific activity to metastin (1-54). For B16, the “intracellular Ca ion level-increasing activity (FLIPR)” value was 0.5 specific activity to metastin (1-54). B17 was tested, and the “intracellular Ca ion level-increasing activity (FLIPR)” value was 1 specific activity to metastin (1-54). For B18, the “intracellular Ca ion level-increasing activity (FLIPR)” value was 2 specific activity to metastin (1-54). For B19, the “intracellular Ca ion level-increasing activity (FLIPR)” value was 2 specific activity to metastin (1-54). In the case of B20, the “intracellular Ca ion level-increasing activity (FLIPR)” value is reported as 5 specific activity to metastin (1-54). With B21 the “intracellular Ca ion level-increasing activity (FLIPR)” value was 1 specific activity to metastin (1-54). B22 was tested, and the “intracellular Ca ion level-increasing activity (FLIPR)” value was 1 specific activity to metastin (1-54).
